Kd data for eight molecules are collected here from paper PMC4220643, “Localization of the CyanoP binding site on photosystem II by surface plasmon resonance spectroscopy” (Frontiers in Plant Science, 2014).

To fix the notation:
T1: PsbV (Thermosynechococcus elongatus, UniProt P0A386 27-163)
T1 construct: PsbV of Thermosynechococcus elongatus, without signal peptide; details of expression and purification are in the supplementary material; also called extrinsic PSII subunit PsbV; source: expressed after a published protocol (Andrews et al., 2005), purified as strep-tagged protein
T1 sequence (looked up): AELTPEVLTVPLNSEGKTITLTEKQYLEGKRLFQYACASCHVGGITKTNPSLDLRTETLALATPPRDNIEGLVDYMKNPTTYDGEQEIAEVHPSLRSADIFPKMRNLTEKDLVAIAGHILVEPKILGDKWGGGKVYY

T2: PsbO (Thermosynechococcus elongatus, UniProt P0A431 27-272)
T2 construct: PsbO of Thermosynechococcus elongatus, without signal peptide; Expression vector derived from pIVEX2.4d; tags and purification are told only in the supplementary material; also called extrinsic PSII subunit PsbO; source: E. coli Overexpress C43, purified
T2 sequence (looked up): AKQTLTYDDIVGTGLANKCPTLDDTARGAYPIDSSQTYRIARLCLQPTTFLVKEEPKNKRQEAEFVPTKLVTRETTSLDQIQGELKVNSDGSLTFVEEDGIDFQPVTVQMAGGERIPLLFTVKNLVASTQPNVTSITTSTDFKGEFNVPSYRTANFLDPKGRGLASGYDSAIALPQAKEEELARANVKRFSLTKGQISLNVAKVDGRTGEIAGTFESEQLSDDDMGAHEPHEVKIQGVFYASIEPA

B1: Im7 fusion protein of PsbU (natural protein, Thermosynechococcus elongatus, UniProt Q9F1L5 31-134, looked up)
chain: ATASTEEELVNVVDEKLGTAYGEKIDLNNTNIAAFIQYRGLYPTLAKLIVKNAPYESVEDVLNIPGLTERQKQILRENLEHFTVTEVETALVEGGDRYNNGLYK
notes: PsbU of Thermosynechococcus elongatus, without signal peptide; PsbU is described only as an Im7 fusion protein; source: E. coli Overexpress C43, purified
B2: Im7-CP43 (e-loop of CP43 fused to Im7) (domain or fragment)
chain: not shown
notes: luminal e-loop of CP43 (PsbC) of Thermosynechococcus elongatus; source: cell-free expression (RTS100, 5Prime), purified on the SPR sensor surface via DNase E7; not shown: Im7 (immunity protein 7, with GGSG linker), N-terminal, kept
B3: Im7-mD1 (C-terminal D1 domain in its processed form fused to Im7) (domain or fragment)
chain: not shown
B4: Im7-D2 (C-terminal domain of D2 fused to Im7) (domain or fragment)
chain: not shown
notes: luminal C-terminal domain of D2 (PsbD) of Thermosynechococcus elongatus; source: cell-free expression (RTS100, 5Prime), purified on the SPR sensor surface via DNase E7; not shown: Im7 (immunity protein 7, with GGSG linker), N-terminal, kept
B5: Im7-D1a (D1 a-loop fused to Im7) (domain or fragment)
chain: not shown
notes: D1 a-loop, D1 (PsbA1) of Thermosynechococcus elongatus, residues A54-Q113; source: cell-free expression (RTS100, 5Prime), purified on the SPR sensor surface via DNase E7; not shown: Im7 (immunity protein 7, with GGSG linker), N-terminal, kept
B6: Im7-pD1 (C-terminal D1 domain with precursor peptide fused to Im7) (domain or fragment)
chain: not shown
B7: CyanoP (natural protein, Thermosynechococcus elongatus, UniProt Q8DH84 20-183, looked up)
chain: CSATSGLQAYVDSYDGYEFLYPRGWVQVQVEDPVDVVFHDIIETTENVSVVVNTVASTKSLEELGSPEEVGDRLLRNIIAPSESGRSSALIAATSQKADDKTYYILEYAVTLPGDGNTAQQRHNLSSIAVSRGKVYTLSVSAPEERWPKVEDQFKTIVSSFTVY
notes: CyanoP of Thermosynechococcus elongatus, without signal peptide; Expression vector derived from pIVEX2.4d; tags and purification are told only in the supplementary material; also called recombinant CyanoP; cyanobacterial homolog of higher plant PsbP; source: E. coli Overexpress C43, purified
B8: Im7-D1pep (C-terminal peptide of processed D1 fused to Im7) (domain or fragment, Thermosynechococcus elongatus, UniProt P0A444 332-344, looked up)
chain: HERNAHNFPLDLA
notes: C-terminal peptide of processed D1, D1 (PsbA1) of Thermosynechococcus elongatus, residues H332-A344; also called D1 peptide; the 13 C-terminal residues of mature D1; source: cell-free expression (RTS100, 5Prime), purified on the SPR sensor surface via DNase E7; not shown: Im7 (immunity protein 7, with GGSG linker), N-terminal, kept

Holding throughout (details): both partners purified
The target of assay [1] is T1, PsbV. The assay can be described thus: SPR; Biacore3000, CM5 chip coated with DNase E7; extrinsic proteins as Im7 fusion proteins overexpressed in E. coli; who was immobilised is not told in the main text; details in the supplementary material.
In the assay “CyanoP” the target is B7. The assay can be described thus: SPR; Biacore3000, CM5 chip with covalently bound DNase E7; Im7-tagged luminal PSII domain captured from the cell-free reaction mixture (on-chip purification); reference surface with Im7, both surfaces saturated with purified Im7; soluble protein injected as analyte in triplicate; steady state responses fitted to a one site binding isotherm.

The next assay has as its target T2, PsbO. Described as above.
Assay [2] concerns the target T1, PsbV. The description is as above.
For assay [3], the target named is T3, Im7-CP47 (e-loop of CP47 fused to Im7) (Thermosynechococcus elongatus, UniProt Q8DIQ1 255-450).
T3 construct: luminal e-loop of CP47 (PsbB) of Thermosynechococcus elongatus; source: cell-free expression (RTS100, 5Prime), purified on the SPR sensor surface via DNase E7; not shown: Im7 (immunity protein 7, with GGSG linker), N-terminal, kept
The assay is described as above.

T3 sequence (Q8DIQ1 255-450): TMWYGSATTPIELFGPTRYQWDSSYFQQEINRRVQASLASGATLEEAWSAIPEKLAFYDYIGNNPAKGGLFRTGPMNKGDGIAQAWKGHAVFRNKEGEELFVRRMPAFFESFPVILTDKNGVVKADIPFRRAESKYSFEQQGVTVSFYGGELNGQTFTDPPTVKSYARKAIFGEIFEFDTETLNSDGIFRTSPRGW

Regarding B1, binding with PsbV [1] was put at a Kd of 146 µM. For the molecule B2, the Kd with CyanoP was 55 µM; in the assay with PsbO, approximately 50 µM; with PsbV [2], 26 µM. B3: the Kd with CyanoP was found to be 74 µM. Consider B4, for which the Kd is 5.2 µM with CyanoP and approximately 50 µM in the assay with PsbO. On the same counts, the results for B5 are 16.2 µM and 50 to 100 µM. With B6, the Kd with CyanoP stood at 76 µM. On to B7, for which, in assay [3], the dissociation constant (Kd) is 91 µM. Take B8: in the assay with CyanoP, the Kd was 100 to 150 µM.
